{"source": "paper PMC5183593", "about": "“Conformational Rigidity within Plasticity Promotes Differential Target Recognition of Nerve Growth Factor” (Frontiers in Molecular Biosciences, 2016)", "molecular_target": "the molecule itself", "experiment": "NMR relaxation (T1, T2, heteronuclear NOE); 15N relaxation at 600 MHz and 30°C; correlation time 14.8 ns", "data": [{"protein": "recombinant mouse Nerve Growth Factor (mNGF) (natural protein, UniProt P01139 122-241, looked up, 15N or 15N-13C isotope labeled, Nerve Growth Factor (beta-NGF), mouse, mature form cut from the precursor proNGF; 118 amino acids per protomer (S1 to residue 118), non-covalent homodimer of 26 kDa; numbers count on: the mature protein; Expression host and the details of the construct are in the Supplementary Information and in Paoletti et al., 2011; also called mouse NGF) SSTHPVFHMGEFSVCDSVSVWVGDKTTATDIKGKEVTVLAEVNINNSVFRQYFFETKCRASNPVESGCRGIDSKHWNSYCTTTHTFVKALTTDEKQAAWRFIRIDTACVCVLSRKATRRG", "values": [{"measurement": "stoichiometry N", "result": 2}]}]}
